Source: patent publication US20250339504A1, “CANCER VACCINE WITH USE OF COMMON CANCER ANTIGEN COCKTAIL, TCR/CAR-T CELL THERAPEUTIC, COMPANION DIAGNOSTIC METHOD, AND METHOD FOR DIAGNOSING RISK OF CANCER ONSET BY DETECTING CIRCULATING TUMOR CELLS” (National Cancer Center, priority 2022, published 2025)

What was measured:
[1] = system: T2 cells to which an HSP105-derived peptide had been exogenously bound; experiment: IFN-γ ELISPOT of HLA-A2-restricted HSP105-specific T cell clones; type: cell-based; settings: coculture with HLA-A2 T2 cells in the presence of the peptide, 20 hours
Experimental: HSP105-HLA-A2 Dextramer was not capable of being sufficiently stained, thus being unavailable for detection of binding T cells. […] CD107a-positive CD8 T cells were selected by single sorting, and cultured on allofeeder cells to establish T cell clones.
The established T cell clones were cocultured with target cells (T2 cells) to which an HSP105-derived peptide had been exogenously bound for 20 hours, and the antigen stimulation-dependent IFN-γ productions were evaluated. The antigen specificities were evaluated by using cells to which a HIV-derived peptide had been bound as a negative control.

[2] = system: T2 cells to which the peptide had been exogenously bound
Experimental: (§1) Target cells were labeled with a fluorescent dye (calcein) and cocultured with each T cell clone for 4 hours, and the cytotoxic activities against target cells were evaluated on the basis of attenuation of fluorescence as an indicator. […] The cytotoxic activities were evaluated with cancer cell lines endogenously expressing HSP105 as targets. Caski cells and SiHa-A2 cells were used as HSP105-positive cell lines, and an SW620 cell line and HepG2 cell line were used as HSP105-negative cell lines.

Experimental for CasKi cell line: as §1
Experimental for SW620 cell line: as §1
Experimental for SiHaA2 cell line: as §1

Molecule | antigen-specific IFN-γ production capability [1] | cytotoxic activity (CasKi cell line) | cytotoxic activity (SW620 cell line) | cytotoxic activity (SiHaA2 cell line) | damaging (cytotoxic) activity [2]
7B9: HLA-A2-restricted T cell clone/TCR recognizing HSP105-derived peptide; SEQ ID NO: 195, 196 (protein, listed as Homo sapiens) chain 1: METLLGVSLVILWLQLARVNSQQGEEDPQALSIQEGENATMNCSYKTSINNLQWYRQNSGRGLVHLILIRSNEREKHSGRLRVTLDTSKKSSSLLITASRAADTASYFCATDTGGAQKLVFGQGTRLTINP chain 2: MDSWTLCCVSLCILVAKHTDAGVIQSPRHEVTEMGQEVTLRCKPISGHDYLFWYRQTMMRGLELLIYFNNNVPIDDSGMPEDRFSAKMPNASFSTLKIQPSEPRDSAVYFCASSPDRGETQYFGPGTRLLVL | strong IFN-γ production capability | significant cytotoxic activity | No significant cytotoxic activity | No significant cytotoxic activity | 
11B9: HLA-A2-restricted T cell clone/TCR recognizing HSP105-derived peptide; SEQ ID NO: 193, 194 (protein, listed as Homo sapiens) chain 1: MACPGFLWALVISTCLEFSMAQTVTQSQPEMSVQEAETVTLSCTYDTSESDYYLFWYKQPPSRQMILVIRQEAYKQQNATENRFSVNFQKAAKSFSLKISDSQLGDAAMYFCAYRIPGAGSYQLTFGKGTKLSVIP chain 2: MGTRLLCWVVLGFLGTDHTGAGVSQSPRYKVAKRGQDVALRCDPISGHVSLFWYQQALGQGPEFLTYFQNEAQLDKSGLPSDRFFAERPEGSVSTLKIQRTQQEDSAVYLCASSPGLAGGAQETQYFGPGTRLLVL | largely lower reactivity than the other clones |  |  |  | 
10C9: HLA-A2-restricted T cell clone/TCR recognizing HSP105-derived peptide; SEQ ID NO: 202, 203 (protein, listed as Homo sapiens) chain 1: MSLSSLLKVVTASLWLGPGIAQKITQTQPGMFVQEKEAVTLDCTYDTSDPSYGLFWYKQPSSGEMIFLIYQGSYDQQNATEGRYSLNFQKARKSANLVISASQLGDSAMYFCAMRDRNTGNQFYFGTGTSLTVIP chain 2: MGFRLLCCVAFCLLGAGPVDSGVTQTPKHLITATGQRVTLRCSPRSGDLSVYWYQQSLDQGLQFLIQYYNGEERAKGNILERFSAQQFPDLHSELNLSSLELGDSALYFCASSVEVYNEQFFGPGTRLTVL | strong IFN-γ production capability | significant cytotoxic activity | No significant cytotoxic activity | No significant cytotoxic activity | exhibited damaging activity
10G7: HLA-A2-restricted T cell clone/TCR recognizing HSP105-derived peptide; SEQ ID NO: 197, 198 (protein, listed as Homo sapiens) chain 1: MWGVFLLYVSMKMGGTTGQNIDQPTEMTATEGAIVQINCTYQTSGFNGLFWYQQHAGEAPTFLSYNVLDGLEEKGRFSSFLSRSKGYSYLLLKELQMKDSASYLCAVRALREAGTALIFGKGTTLSVSS chain 2: MDTWLVCWAIFSLLKAGLTEPEVTQTPSHQVTQMGQEVILRCVPISNHLYFYWYRQILGQKVEFLVSFYNNEISEKSEIFDDQFSVERPDGSNFTLKIRSTKLEDSAMYFCASSQNREAFFGQGTRLTVV | strong IFN-γ production capability | significant cytotoxic activity | No significant cytotoxic activity | No significant cytotoxic activity | exhibited damaging activity
